According to publication PMC12871924, “Human FASTK preferentially binds single‐stranded and G‐rich RNA”:
Changes are numbered by the printed parent chain.

Key:
FASTK∆N1-75 [1] = biological target: T1, FASTK∆N1-75 (Homo sapiens, UniProt Q14296 76-549, del1-75); experiment: MST; 100 mM K+, no Na+; better than AU-rich mutant; MST: 1x PBS, 5% glycerol, 1 mM DTT, Tween-20 (0.05% in RNA stock), 20 nM RNA, 22 °C; RNA annealed in 50 mM Tris/HCl pH 7.5, 50 mM KCl (or LiCl), 50 mM NaCl; EMSA: same solutions, on ice; footprinting: 1x Structure Buffer, 37 °C; conditions: protein: recombinant; tags: His6-SUMO cleaved; label: Cy5
T1 sequence: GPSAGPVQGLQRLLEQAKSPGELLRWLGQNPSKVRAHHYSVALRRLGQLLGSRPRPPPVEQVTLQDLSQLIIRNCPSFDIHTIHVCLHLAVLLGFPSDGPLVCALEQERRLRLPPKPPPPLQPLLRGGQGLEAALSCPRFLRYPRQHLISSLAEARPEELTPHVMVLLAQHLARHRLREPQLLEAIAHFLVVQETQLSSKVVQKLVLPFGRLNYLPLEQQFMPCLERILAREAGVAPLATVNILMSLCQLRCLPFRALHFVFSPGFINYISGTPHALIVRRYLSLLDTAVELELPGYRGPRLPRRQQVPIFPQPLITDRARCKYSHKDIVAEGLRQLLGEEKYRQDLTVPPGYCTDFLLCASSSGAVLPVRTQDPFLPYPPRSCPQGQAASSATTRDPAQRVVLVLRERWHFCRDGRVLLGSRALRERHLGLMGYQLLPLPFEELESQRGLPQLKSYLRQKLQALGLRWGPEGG

FASTK∆N1-75 [2] = biological target: T1, FASTK∆N1-75; experiment: MST; same as unmutated oligo 10; MST: 1x PBS, 5% glycerol, 1 mM DTT, Tween-20 (0.05% in RNA stock), 20 nM RNA, 22 °C; RNA annealed in 50 mM Tris/HCl pH 7.5, 50 mM KCl (or LiCl), 50 mM NaCl; EMSA: same solutions, on ice; footprinting: 1x Structure Buffer, 37 °C; conditions: protein: recombinant; tags: His6-SUMO cleaved; label: Cy5 body (CTP or UTP)
FASTK∆N1-75 [3] = biological target: T1, FASTK∆N1-75; experiment: MST; MST: 1x PBS, 5% glycerol, 1 mM DTT, Tween-20 (0.05% in RNA stock), 20 nM RNA, 22 °C; RNA annealed in 50 mM Tris/HCl pH 7.5, 50 mM KCl (or LiCl), 50 mM NaCl; EMSA: same solutions, on ice; footprinting: 1x Structure Buffer, 37 °C; conditions: protein: recombinant, tags: His6-SUMO cleaved
FASTK∆N1-75 [4] = biological target: T1, FASTK∆N1-75; experiment: MST; K+ annealed; MST: 1x PBS, 5% glycerol, 1 mM DTT, Tween-20 (0.05% in RNA stock), 20 nM RNA, 22 °C; RNA annealed in 50 mM Tris/HCl pH 7.5, 50 mM KCl (or LiCl), 50 mM NaCl; EMSA: same solutions, on ice; footprinting: 1x Structure Buffer, 37 °C; conditions: protein: recombinant, tags: His6-SUMO cleaved, label: Cy5
FASTK∆N1-75 [5] = biological target: T1, FASTK∆N1-75; experiment: MST; same as unmutated oligo 5; MST: 1x PBS, 5% glycerol, 1 mM DTT, Tween-20 (0.05% in RNA stock), 20 nM RNA, 22 °C; RNA annealed in 50 mM Tris/HCl pH 7.5, 50 mM KCl (or LiCl), 50 mM NaCl; EMSA: same solutions, on ice; footprinting: 1x Structure Buffer, 37 °C; conditions: protein: recombinant; tags: His6-SUMO cleaved; label: Cy5 body (CTP or UTP)
[6] = biological target: T2, FASTK∆N1-75 R249/R251 mutant (Homo sapiens, UniProt Q14296 76-549, R249A;R251A;del1-75); experiment: MST; MST: 1x PBS, 5% glycerol, 1 mM DTT, Tween-20 (0.05% in RNA stock), 20 nM RNA, 22 °C; RNA annealed in 50 mM Tris/HCl pH 7.5, 50 mM KCl (or LiCl), 50 mM NaCl; EMSA: same solutions, on ice; footprinting: 1x Structure Buffer, 37 °C; conditions: protein: recombinant; tags: His6-SUMO cleaved; label: Cy5 body (CTP or UTP); 5' 32P in footprinting; predicted G4
T2 sequence: T1 sequence with R174A, R176A

UUACCCUUACCCUUACCCUUACCC (ssRNA) [TERRA C-rich mutant]: binds (FASTK∆N1-75 [1]).

B1: ND6 oligo 10 G4kill mutant (ssRNA)
RNA: GGAGGAUUGUUGUUUGGAAGGUGGAUGCGGAGGAAAUGUUGUUAGUAAUGAGAAAUCCUGCGAAUAGGCUUCCGG
B1: binds (FASTK∆N1-75 [2]).

B2: ND6 oligo 10 (structured_RNA)
RNA: B1 RNA with A3G, U22G, A31G
Binder B2 has a Kd (FASTK∆N1-75 [3]; label: Cy5 body (CTP or UTP), predicted G4) of 0.0185 µM.

AAAUCUGUAAAAUC (ssRNA) [A-rich short RNA] was tested, and the Kd (FASTK∆N1-75 [3]; label: Cy5) was 0.0784 µM.

In the case of UUAGGGUUAGGGUUAGGGUUAGGG (structured_RNA) [TERRA], the Kd (FASTK∆N1-75 [4]; G4 intramolecular in K+) is reported as 0.0024 µM.

For GGGUCUGUGGGGUC (ssRNA) [G-rich short RNA (internal loop strand 2)], the Kd (FASTK∆N1-75 [3]; label: Cy5) was 0.0027 µM.

B3: ND6 oligo 5 G4kill mutant (ssRNA)
RNA: GAGUGGUCAGAGUUGAUUCGUGAGGAUCCUAUUGGUGCGGAGGCUUUGUAUGAUUAUGUGCGUUGAUUAGUAGUAGUUACUGGUUGAACAUUGUUUGUUGGUGUAUAUAUUGUAAUUGAGAUUGC
B3: binds (FASTK∆N1-75 [5]).

B4: ND6 oligo 5 (structured_RNA)
RNA: B3 RNA with U4G, A11G, U21G, A41G, U59G
For B4, the Kd (FASTK∆N1-75 [3]; label: Cy5 body (CTP or UTP), 5' 32P in footprinting, predicted G4) was 0.0255 µM and the binding signal [6] was 5 fold decrease vs wild type.

For UUAGAGUUAGUGUUAGAGUUAGUG (ssRNA) [TERRA AU-rich mutant], the Kd (FASTK∆N1-75 [4]) was 0.0064 µM.

Binder CCCUCUGUCCCCUC (ssRNA) [C-rich short RNA] has a Kd (FASTK∆N1-75 [3]; label: Cy5) of 0.212 µM.

UUUUCUGUUUUUUC (ssRNA) [U-rich short RNA] gave a Kd (FASTK∆N1-75 [3]; label: Cy5) of 0.0632 µM.
